In the supplement of paper PMC10567573:

B1: C22orf15 (parent)
chain: ITQSWQVSVRVQPRGRAHLLPNPY
B2: TMEM40 (parent)
chain: YGETDFHKQDGKAGLFSQEQYERN

Variants of: B1
Assay: protein stability index of a GFP-peptide fusion (GPS, HEK-293T) (PSI 1-6); higher = more stable
Settings: c terminus: a fixed tail appended
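Also: lentivirally expressed fusions sorted by FACS into six bins by GFP to DsRed ratio, PSI derived from sequencing read proportions per bin multiplied by bin number.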

Protein stability index, by site and new letter:
P21: V 1.94 | L 2.04 | E 1.6 | R 1.79 | C 3.18 | K 1.64 | H 2.78 | S 1.7 | A 1.29 | N 1.68 | T 2.87 | D 1.56 | Q 1.52 | Y 2.38 | G 1.76 | I 1.91
R16: W 2.89 | P 2.07 | Y 3.74 | T 2.14 | L 1.69 | D 2.88 | V 1.24 | I 2.26 | Q 1 | N 1.4 | S 2.21 | C 4.64 | H 1.89 | F 3.25 | E 1.24
L20: S 1.03 | T 3.22 | C 1.97 | A 1.91 | R 1.7 | Y 3.07 | K 1.01 | V 4.25 | N 2.16 | P 1.17 | H 1.51 | I 2.29
H18: P 2.7 | N 2.99 | T 2.13 | K 1.74 | M 1.83 | D 2.29 | A 2.9 | Y 1.95 | E 1.36 | S 1.43 | V 2.19 | I 1.29 | Q 2.99 | C 1.49 | L 3.13
P23: K 2.09 | W 1.11 | Q 1.93 | R 1.87 | N 3.05 | S 1.92 | F 3.34 | H 1.27 | I 2.08 | D 1.42 | A 1.34 | E 1.51 | G 1.32 | L 1.46 | C 1.6
Y24: H 1.07 | A 1.39 | F 2.47 | P 1.15 | R 2.1 | C 1.71 | W 2.93 | K 2.19 | N 1.54 | I 2.29 | T 2.34 | D 1.75 | S 1.34 | Q 1.47
L19: S 2.1 | N 1.49 | E 3.62 | M 3.54 | D 1.82 | V 1.6 | K 2.33 | C 2.07 | Q 1.93 | G 2.23 | I 2.81 | H 1.92 | R 2.43 | P 1.78 | T 2.62 | A 2.42
G15: Q 1.48 | C 1.97 | W 4.12 | H 2.03 | V 2.31 | D 1.94 | A 4.31 | T 1.51 | E 2.02 | F 1.97 | N 3.33 | R 1.73 | K 2.31 | Y 1.77 | P 3.81
N22: D 1.62 | R 2.33 | V 1.75 | Y 2.09 | P 1.17 | T 1.89 | I 2.39 | A 2.85 | M 1.88 | F 1.49 | Q 2.43 | K 2.17 | L 3.15 | E 1.59 | S 4.3 | H 1.75
A17: I 2.96 | N 1.7 | W 2.46 | C 3.18 | K 1.34 | Y 3.21 | G 3.81 | R 1.66 | Q 1.68 | M 2.57 | L 2.42 | S 2.46 | P 1.81 | T 2.28 | D 1.76 | V 2.58 | H 3.03 | F 1.1
R14: I 1.54 | L 2.15 | K 2.25 | Y 1.85 | T 1.05 | P 1.68 | N 1.98 | Q 2.15

Variants of: B2
Assay: as above
Settings: c terminus: a fixed tail appended

Protein stability index: each site, then its substitutions
Y1: C 4.55 | H 4.38 | A 4.89 | D 4.92 | F 4.88 | E 5.36 | G 4.5
